Laboratory results reported in patent publication US20160297892A1 (Novo Nordisk, published 2016).
Values belong to the binder of their own block, whether it stands above or below them.

B4: human Protein S (plasma derived) (other)
chain: ANSLLEETKQGNLERECIEELCNKEEAREVFENDPETDYFYPKYLVCLRSFQTGLFTAARQSTNAYPDLRSCVNAIPDQCSPLPCNEDGYMSCKDGKASFTCTCKPGWQGEKCEFDINECKDPSNINGGCSQICDNTPGSYHCSCKNGFVMLSNKKDCKDVDECSLKPSICGTAVCKNIPGDFECECPEGYRYNLKSKSCEDIDECSENMCAQLCVNYPGGYTCYCDGKKGFKLAQDQKSCEVVSVCLPLNLDTKYELLYLAEQFAGVVLYLKFRLPEISRFSAEFDFRTYDSEGVILYAESIDHSAWLLIALRGGKIEVQLKNEHTSKITTGGDVINNGLWNMVSVEELEHSISIKIAKEAVMDINKPGPLFKPENGLLETKVYFAGFPRKVESELIKPINPRLDGCIRSWNLMKQGASGIKEIIQEKQNKHCLVTVEKGSYYPGSGIAQFHIDYNNVSSAEGWHVNVTLNIRPSTGTGVMLALVSGNNTVPFAVSLVDSTSEKSQDILLSVENTVIYRIQALSLCSDQQSHLEFRVNRNNLELSTPLKIETISHEDLQRQLAVLDKAMKAKVATYLGGLPDVPFSATPVNAFYNGCMEVNINGVQLDLDEAISKHNDIRAHSCPSVWKKTKNS
notes: Bought plasma-derived human Protein S (Haematologic Technologies or Enzyme Research Laboratories); also called Plasma PS; free Protein S

Tests used:
[1] = biological target: B4; test: SPR (Biacore T200), Fab on Protein S captured on C4BP
Experimental: (§1) In brief, a polyclonal anti-C4BP antibody targeting the alpha chain (ab83755 from abcam) was immobilized on a CM5 Biacore sensor chip by standard amine coupling chemistry. […] The experiment was conducted in 10 mM Hepes, pH 7.4; 150 mM NaCl; 10 M CaCl₂ supplemented with 0.005% Tween20 and the chip was regenerated with glycine-HCl pH 1.7.

[2] = biological target: B4; test: SPR; protein S binding to the full length antibody
[3] = biological target: B4; test: ELISA, recombinant antibody
[4] = biological target: T1, EGF1-4 domains of human Protein S with C-terminal HPC4 tag (human, UniProt P07225 114-286, partial hydroxylation of Asn or Asp in the EGF domains (detected by MS)); test: ELISA, recombinant antibody
T1 construct: also called hEGF1-4; human Protein S EGF1-4
T1 sequence: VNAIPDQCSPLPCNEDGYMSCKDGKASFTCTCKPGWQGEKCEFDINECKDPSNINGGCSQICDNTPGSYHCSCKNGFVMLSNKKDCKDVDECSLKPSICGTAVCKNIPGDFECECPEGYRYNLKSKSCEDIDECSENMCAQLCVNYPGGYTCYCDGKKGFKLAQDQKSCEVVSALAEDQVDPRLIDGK

[5] = biological target: T2, EGF domain 1 and 2 of recombinant human Protein S (human, UniProt P07225 114-200, limits assumed); test: ELISA, recombinant antibody
T2 construct: domain: EGF domain 1 and 2; also called hEGF1-2
T2 sequence (looked up): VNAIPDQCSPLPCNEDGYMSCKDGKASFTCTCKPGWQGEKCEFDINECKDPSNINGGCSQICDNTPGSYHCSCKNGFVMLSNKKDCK

[6] = biological target: T3, Gla-domain deleted recombinant human Protein S (human, UniProt P07225 114-676); test: ELISA, recombinant antibody
T3 construct: also called hPS-dGla; desGla human Protein S
T3 sequence: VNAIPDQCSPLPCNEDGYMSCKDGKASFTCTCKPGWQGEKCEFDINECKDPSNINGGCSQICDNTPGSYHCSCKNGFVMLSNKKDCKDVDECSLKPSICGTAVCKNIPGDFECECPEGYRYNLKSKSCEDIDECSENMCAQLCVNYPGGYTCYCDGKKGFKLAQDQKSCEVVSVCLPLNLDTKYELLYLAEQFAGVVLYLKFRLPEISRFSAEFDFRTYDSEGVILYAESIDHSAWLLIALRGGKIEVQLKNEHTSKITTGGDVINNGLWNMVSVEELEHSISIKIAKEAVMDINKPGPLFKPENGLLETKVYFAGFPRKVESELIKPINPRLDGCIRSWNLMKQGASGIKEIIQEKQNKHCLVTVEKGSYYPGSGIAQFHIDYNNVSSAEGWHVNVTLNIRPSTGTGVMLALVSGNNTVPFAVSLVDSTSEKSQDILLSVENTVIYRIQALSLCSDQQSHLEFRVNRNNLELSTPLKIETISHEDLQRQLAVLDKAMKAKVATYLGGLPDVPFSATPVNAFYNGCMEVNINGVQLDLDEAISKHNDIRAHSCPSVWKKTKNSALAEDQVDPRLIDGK

C4b-Binding Protein = biological target: T4, C4b-Binding Protein (UniProt P04003 49-597; P20851 18-252); test: SPR (Biacore T200), C4BP captured by immobilized polyclonal anti-C4BP alpha chain antibody
T4 construct: Bought protein; also called C4BP; C4b-BP
T4 sequence (looked up) 1: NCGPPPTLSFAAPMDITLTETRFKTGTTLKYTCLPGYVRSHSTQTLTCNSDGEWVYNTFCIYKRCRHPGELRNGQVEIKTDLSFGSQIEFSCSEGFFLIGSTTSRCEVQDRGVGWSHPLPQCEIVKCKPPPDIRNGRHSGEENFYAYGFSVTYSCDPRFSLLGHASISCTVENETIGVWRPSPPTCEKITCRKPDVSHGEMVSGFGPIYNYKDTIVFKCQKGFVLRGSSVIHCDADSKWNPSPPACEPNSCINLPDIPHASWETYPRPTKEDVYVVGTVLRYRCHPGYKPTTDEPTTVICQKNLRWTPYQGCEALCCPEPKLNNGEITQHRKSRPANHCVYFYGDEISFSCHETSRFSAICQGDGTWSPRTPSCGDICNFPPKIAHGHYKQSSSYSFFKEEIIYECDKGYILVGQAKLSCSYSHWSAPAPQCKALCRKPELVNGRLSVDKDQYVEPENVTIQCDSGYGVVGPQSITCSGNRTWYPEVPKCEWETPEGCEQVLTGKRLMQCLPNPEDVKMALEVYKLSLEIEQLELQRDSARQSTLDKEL
T4 sequence (looked up) 2: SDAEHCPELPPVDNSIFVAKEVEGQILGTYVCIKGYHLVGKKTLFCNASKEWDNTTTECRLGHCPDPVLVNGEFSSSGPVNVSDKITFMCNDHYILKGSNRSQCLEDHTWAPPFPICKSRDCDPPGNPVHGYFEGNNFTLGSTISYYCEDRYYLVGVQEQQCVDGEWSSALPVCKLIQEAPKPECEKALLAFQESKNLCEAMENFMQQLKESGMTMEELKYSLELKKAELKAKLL
Experimental: as §1

Kd [1]: 10 nM
B1: 0322-0000-1139 (Fab, V domains shown)
VH: QVQLQQPGAELVRPGASVKLSCKASGYTFTSYWINWVKQRPEQGLEWIGRIDPYDSETHYNQKFKDKAILTVDKSSSTAYMQLSSLTSEDSAVYYCARWGGSGYAMDYWGQGTSVTVSS
VL: QIVLSQSPAILSASPGEKVTMTCRASSSVSYMYWYQQKPGSSPKPWIYATSNLASGVPARFSGSGSGTSYSLTISRVEAEDAATYYCQQWSSIPPTFGGGTKLEIKR
notes: also called Fab 1139

binding result [3]: binds
binding result [4]: binds
binding result [5]: no binding
binding result [6]: binds
B3: M-hProtS-6F230A10 monoclonal antibody (antibody, mouse IgG1, V domains shown)
VH: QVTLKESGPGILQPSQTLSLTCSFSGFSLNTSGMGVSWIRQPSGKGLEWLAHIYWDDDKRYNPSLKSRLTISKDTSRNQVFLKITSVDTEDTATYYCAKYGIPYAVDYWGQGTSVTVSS
VL: QIVLTQSPAIMSASPGEKVTMTCSASSSVSYMYWYQQKPGSSPRLLIYDTSNLASGVPVRFSGSGSGTSYSLTISRMEAEDAATYYCQQWSSYPLTFGAGTKLELKR

The next lines start with the binder.

B2: 0322-0000-1069 (murine-human IgG4 chimer) (antibody, V domains shown)
VH: QVQLQQPGAELVRPGASVKLSCKASGYTFTSYWINWVKQRPEQGLEWIGRIDPYDSETHYNQKFKDKAILTVDKSSSTAYMQLSSLTSEDSAVYYCARWGGSGYAMDYWGQGTSVTVSS
VL: QIVLSQSPAILSASPGEKVTMTCRASSSVSYMYWYQQKPGSSPKPWIYATSNLASGVPARFSGSGSGTSYSLTISRVEAEDAATYYCQQWSSIPPTFGGGTKLEIKR
notes: Mouse variable domains on human IgG4(S241P) / human kappa constant regions
Kd [2]: 20 nM

Binder: B4
Kd (C4b-Binding Protein): 2 nM
